Data as given in the supplement of paper PMC11246515.
± gives the standard deviation of the averaged measurements.

Experiment: total protein half-life in vivo (active degradation + dilution); higher = more stable protein
[1] = E. coli NCM3722 delta-clpP delta-lon delta-hslV, growth: N-lim chemostat, doubling time 6 h
[2] = E. coli NCM3722 delta-clpP, growth: N-lim chemostat, doubling time 6 h
[3] = E. coli NCM3722 delta-hslV, growth: N-lim chemostat, doubling time 6 h
[4] = E. coli NCM3722 delta-lon, growth: N-lim chemostat, doubling time 6 h
[5] = E. coli NCM3722 delta-smpB, growth: N-lim chemostat, doubling time 6 h
[6] = wild type E. coli NCM3722, growth: C-lim chemostat, doubling time 3 h
[7] = wild type E. coli NCM3722, growth: C-lim chemostat, doubling time 6 h
[8] = wild type E. coli NCM3722, growth: C-lim chemostat, doubling time 12 h
[9] = wild type E. coli NCM3722, growth: N-lim chemostat, doubling time 6 h
[10] = wild type E. coli NCM3722, growth: N-lim chemostat, doubling time 12 h
[11] = wild type E. coli NCM3722, growth: P-lim chemostat, doubling time 6 h
[12] = wild type E. coli NCM3722, growth: P-lim chemostat, doubling time 12 h

Sequence | total protein half-life in vivo [1] [h] | total protein half-life in vivo [2] [h] | total protein half-life in vivo [3] [h] | total protein half-life in vivo [4] [h] | total protein half-life in vivo [5] [h] | total protein half-life in vivo [6] [h] | total protein half-life in vivo [7] [h] | total protein half-life in vivo [8] [h] | total protein half-life in vivo [9] [h] | total protein half-life in vivo [10] [h] | total protein half-life in vivo [11] [h] | total protein half-life in vivo [12] [h]
MSQNVYQFIDLQRVDPPKKPLKIRKIEFVEIYEPFSEGQAKAQADRCLSCGNPYCEWKCPVHNYIPNWLKLANEGRIFEAAELSHQTNTLPEVCGRVCPQDRLCEGSCTLNDEFGAVTIGNIERYINDKAFEMGWRPDMSGVKQTGKKVAIIGAGPAGLACADVLTRNGVKAVVFDRHPEIGGLLTFGIPAFKLEKEVMTRRREIFTGMGIEFKLNTEVGRDVQLDDLLSDYDAVFLGVGTYQSMRGGLENEDADGVYAALPFLIANTKQLMGFGETRDEPFVSMEGKRVVVLGGGDTAMDCVRTSVRQGAKHVTCAYRRDEENMPGSRREVKNAREEGVEFKFNVQPLGIEVNGNGKVSGVKMVRTEMGEPDAKGRRRAEIVAGSEHIVPADAVIMAFGFRPHNMEWLAKHSVELDSQGRIIAPEGSDNAFQTSNPKIFAGGDIVRGSDLVVTAIAEGRKAADGIMNWLEV | 5.1 ± 0.5 | 4.59 ± 0.21 | 4.73 ± 0.05 | 5.25 ± 0.19 | 4.63 ± 0.37 | 2.7 ± 0.04 | 4.602 ± 0.032 | 7.68 ± 0.49 | 4.9 ± 0.24 | 7.719 ± 0.058 | 4.54 ± 0.39 | 8.48 ± 0.63
MSQPLLSVNGLMMRFGGLLAVNNVNLELYPQEIVSLIGPNGAGKTTVFNCLTGFYKPTGGTILLRDQHLEGLPGQQIARMGVVRTFQHVRLFREMTVIENLLVAQHQQLKTGLFSGLLKTPSFRRAQSEALDRAATWLERIGLLEHANRQASNLAYGDQRRLEIARCMVTQPEILMLDEPAAGLNPKETKELDELIAELRNHHNTTILLIEHDMKLVMGISDRIYVVNQGTPLANGTPEQIRNNPDVIRAYLGEA [P0A9S7] | 6.52 ± 0.66 | 6.12 ± 0.48 | 6.06 ± 0.53 | 6.07 ± 0.61 | 5.74 ± 0.43 | 3.12 ± 0.036 | 6.18 ± 0.31 | 11.99 ± 0.11 | 6.06 ± 0.2 | 12.3 ± 0.36 | 6.12 ± 0.34 | 12.9 ± 0.69
MSQPLNADQELVSDVVACQLVIKQILDVLDVIAPVEVREKMSSQLKNIDFTNHPAAADPVTMRAIQKAIALIELKFTPQGESH [P0AD10] | 5.83 ± 0.39 |  | 5.15 |  | 3.91 ± 0.9 | 3.21 | 4.53 ± 0.82 | 8.31 ± 0.17 | 3.32 | 6.2 | 4.76 ± 1.4 | 10.3 ± 0.33
MSQSLFSQPLNVINVGIAMFSDDLKKQHVEVTQLDWTPPGQGNMQVVQALDNIADSPLADKIAAANQQALERIIQSHPVLIGFDQAINVVPGMTAKTILHAGPPITWEKMCGAMKGAVTGALVFEGLAKDLDEAAELAASGEITFSPCHEHDCVGSMAGVTSASMFMHIVKNKTYGNIAYTNMSEQMAKILRMGANDQSVIDRLNWMRDVQGPILRDAMKIIGEIDLRLMLAQALHMGDECHNRNNAGTTLLIQALTPGIIQAGYSVEQQREVFEFVASSDYFSGPTWMAMCKAAMDAAHGIEYSTVVTTMARNGVEFGLRVSGLPGQWFTGPAQQVIGPMFAGYKPEDSGLDIGDSAITETYGIGGFAMATAPAIVALVGGTVEEAIDFSRQMREITLGENPNVTIPLLGFMGVPSAIDITRVGSSGILPVINTAIAHKDAGVGMIGAGIVHPPFACFEKAILGWCERYGV | 5.39 ± 0.44 |  |  |  |  |  | 4.45 | 7.84 | 2.89 | 4.45 |  | 8.94 ± 0.66
MSQTIDLTLDGLSCGHCVKRVKESLEQRPDVEQADVSITEAHVTGTASAEQLIETIKQAGYDASVSHPKAKPLAESSIPSEALTAVSEALPAATADDDDSQQLLLSGMSCASCVTRVQNALQSVPGVTQARVNLAERTALVMGSASPQDLVQAVEKAGYGAEAIEDDAKRRERQQETAVATMKRFRWQAIVALAVGIPVMVWGMIGDNMMVTADNRSLWLVIGLITLAVMVFAGGHFYRSAWKSLLNGAATMDTLVALGTGVAWLYSMSVNLWPQWFPMEARHLYYEASAMIIGLINLGHMLEARARQRSSKALEKLLDLTPPTARLVTDEGEKSVPLAEVQPGMLLRLTTGDRVPVDGEITQGEAWLDEAMLTGEPIPQQKGEGDSVHAGTVVQDGSVLFRASAVGSHTTLSRIIRMVRQAQSSKPEIGQLADKISAVFVPVVVVIALVSAAIWYFFGPAPQIVYTLVIATTVLIIACPCALGLATPMSIISGVGRAAEFGVLVRDADALQRASTLDTVVFDKTGTLTEGKPQVVAVKTFADVDEAQALRLAAALEQGSSHPLARAILDKAGDMQLPQVNGFRTLRGLGVSGEAEGHALLLGNQALLNEQQVGTKAIEAEITAQASQGATPVLLAVDGKAVALLAVRDPLRSDSVAALQRLHKAGYRLVMLTGDNPTTANAIAKEAGIDEVIAGVLPDGKAEAIKHLQSEGRQVAMVGDGINDAPALAQADVGIAMGGGSDVAIETAAITLMRHSLMGVADALAISRATLHNMKQNLLGAFIYNSIGIPVAAGILWPFTGTLLNPVVAGAAMALSSITVVSNANRLLRFKPKE | 5.76 ± 0.52 | 5.33 ± 0.2 | 5.194 ± 0.042 | 5.433 ± 0.023 | 5.23 ± 0.55 | 2.89 ± 0.21 | 5.07 ± 0.085 | 9.5 ± 0.77 | 5.26 ± 0.34 | 9.52 ± 0.35 | 5.33 ± 0.32 | 9.65 ± 0.45
MSQTVHFQGNPVTVANSIPQAGSKAQTFTLVAKDLSDVTLGQFAGKRKVLNIFPSIDTGVCAASVRKFNQLATEIDNTVVLCISADLPFAQSRFCGAEGLNNVITLSTFRNAEFLQAYGVAIADGPLKGLAARAVVVIDENDNVIFSQLVDEITTEPDYEAALAVLKA [P0A862] | 5.35 ± 0.21 | 5.2 ± 0.74 | 5.25 ± 0.47 | 4.96 ± 0.085 | 4.739 ± 0.047 | 3.16 ± 0.047 | 6.01 ± 0.23 | 10.8 ± 1.2 | 5.01 ± 0.18 | 9.45 ± 1.1 | 6.09 ± 0.53 | 13.3 ± 0.69
MSQVLITGATGLVGGHLLRMLINEPKVNAIAAPTRRPLGDMPGVFNPHDPQLSDALAQVTDPIDIVFCCLGTTRREAGSKEAFIHADYTLVVDTALTGRRLGAQHMLVVSAMGANAHSPFFYNRVKGEMEEALIAQNWPKLTIARPSMLLGDRSKQRMNETLFAPLFRLLPGNWKSIDARDVARVMLAESMRPEHEGVTILSSSELRKRAE | 6.13 ± 0.065 | 5.36 ± 0.4 | 5.98 ± 0.48 | 6.26 ± 0.69 |  | 3.24 ± 0.14 |  |  | 5.69 ± 1.1 |  |  | 
MSRFVPRIIPFYLLLLVAGGTANAQSTFEQKAANPFDNNNDGLPDLGMAPENHDGEKHFAEIVKDFGETSMNDNGLDTGEQAKAFALGKVRDALSQQVNQHVESWLSPWGNASVDVKVDNEGHFTGSRGSWFVPLQDNDRYLTWSQLGLTQQDNGLVSNVGVGQRWARGNWLVGYNTFYDNLLDENLQRAGFGAEAWGEYLRLSANFYQPFAAWHEQTATQEQRMARGYDLTARMRMPFYQHLNTSVSLEQYFGDRVDLFNSGTGYHNPVALSLGLNYTPVPLVTVTAQHKQGESGENQNNLGLNLNYRFGVPLKKQLSAGEVAESQSLRGSRYDNPQRNNLPTLEYRQRKTLTVFLATPPWDLKPGETVPLKLQIRSRYGIRQLIWQGDTQILSLTPGAQANSAEGWTLIMPDWQNGEGASNHWRLSVVVEDNQGQRVSSNEITLTLVEPFDALSNDELRWEP |  | 6.12 | 5.24 ± 1.5 | 5.79 ± 1.8 | 5.36 ± 0.54 |  |  |  | 6.73 ± 1 | 14.3 ± 1.6 |  | 
MSRIIMLIPTGTSVGLTSVSLGVIRAMERKGVRLSVFKPIAQPRTGGDAPDQTTTIVRANSSTTTAAEPLKMSYVEGLLSSNQKDVLMEEIVANYHANTKDAEVVLVEGLVPTRKHQFAQSLNYEIAKTLNAEIVFVMSQGTDTPEQLKERIELTRNSFGGAKNTNITGVIVNKLNAPVDEQGRTRPDLSEIFDDSSKAKVNNVDPAKLQESSPLPVLGAVPWSFDLIATRAIDMARHLNATIINEGDINTRRVKSVTFCARSIPHMLEHFRAGSLLVTSADRPDVLVAACLAAMNGVEIGALLLTGGYEMDARISKLCERAFATGLPVFMVNTNTWQTSLSLQSFNLEVPVDDHERIEKVQEYVANYINADWIESLTATSERSRRLSPPAFRYQLTELARKAGKRIVLPEGDEPRTVKAAAICAERGIATCVLLGNPAEINRVAASQGVELGAGIEIVDPEVVRESYVGRLVELRKNKGMTETVAREQLEDNVVLGTLMLEQDEVDGLVSGAVHTTANTIRPPLQLIKTAPGSSLVSSVFFMLLPEQVYVYGDCAINPDPTAEQLAEIAIQSADSAAAFGIEPRVAMLSYSTGTSGAGSDVEKVREATRLAQEKRPDLMIDGPLQYDAAVMADVAKSKAPNSPVAGRATVFIFPDLNTGNTTYKAVQRSADLISIGPMLQGMRKPVNDLSRGALVDDIVYTIALTAIQSAQQQ [P0A9M8] | 6.116 ± 0.01 | 5.89 ± 0.68 | 6.22 ± 0.38 | 6.08 ± 0.32 | 5.973 ± 0.042 | 3.14 ± 0.039 | 5.61 ± 0.24 | 11 ± 0.26 | 6.14 ± 0.12 | 11.99 ± 0.054 | 6.32 ± 0.58 | 11.8 ± 0.43
